Data on two substances can be found in publication PMC2615049.

The term Kd denotes the concentration at which binding is half-saturated.

Test [1] has as its target Bovine cationic trypsin (bovine). Kind of test: equilibrium titration with spectrophotometric assay of residual free trypsin.
Test [2] has the same target. Kind of test: ITC. A general note: ITC needs no label: the signal is the heat of the interaction.

Regarding C14S BPTI variant (natural protein), the Kd in test [1] was 170 pM.

For “C14S/C38S BPTI variant (natural protein)”, the dH (enthalpy of dissociation, ΔHd, at 25 °C, HEPES buffer) in test [2] amounted to 10.6 kcal/mol.
